Measurements from the supplement of paper PMC9170038.

System: MS2 coat protein
Experiment: apparent KD of MS2 coat protein; designed switch direction (-1 OFF switch, 1 ON switch): -1; higher = weaker reporter binding
Method in brief: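 The reported apparent KD is a per-design median over clusters, from curve fits of normalised cluster fluorescence. Protein titrations used SNAP-549-labelled MS2 coat protein, doubled from 0.7 or 1.5 nM to 3 µM, in Tris-HCl pH 7.5 buffer with KCl, MgCl2, BSA, DTT, tRNA and Tween-20, with no input, 200 uM small-molecule ligand, or an oligonucleotide input. The RNA switches were transcribed on Illumina chips by stalled E. coli RNA polymerase.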

[1] = Eterna round: R95, input ligand: microRNA oligo, concentration not stated
[2] = Eterna round: R95, input ligand: FMN 200 uM
[3] = Eterna round: R95, input ligand: none
[4] = input ligand: microRNA oligo, concentration not stated

Sequence | apparent KD of MS2 coat protein (input ligand: FMN 200 uM) [nM] | apparent KD of MS2 coat protein (input ligand: none) [nM] | apparent KD of MS2 coat protein [1] [nM] | further results
CGCACCACAUGAGGAUCAAACAUGAGGAUCACCCAUGUAUAACAAGCUUUUUGCUCGUCUUAUAAAUAUGUGGUGCG [Electric Eye 3 - Jieux - Sensor, turn-off variant 1] (Eterna round: R97, puzzle: Sensor, turn-off variant 1) | 13.9 | 14.2 |  | 
CAGUGACAUGAGGAUCACCCAUGUUAGGAUAUCCGCAAAGGGAGUAGGAUUCCCAUUUGGAGAAGGGACAGGUG [Eternabot (L1) Solution 95] (Eterna round: R97, puzzle: Exclusion 1) | 72.5 | 52.6 |  | 
CUAUGUUAGCAGGAUAUGCCAUUAUUCUUUUUCGCAGAAGGGCUUACAUGAGGAUCACCCAUGUUACAUUUCUU [JR_E6_Sub086] (puzzle: Exclusion 6) |  |  | 16.7 | 
GCCUUACCGGUCAGGAUAUACAUUCGUCACUCCUUGUAGAAGGGACAUGAGGAUCACCCAUGUACAUUACAUUC [alecazam41] (Eterna round: R97, puzzle: Brourd's mod of Exclusion 4) | 22 | 26.1 |  | 
UGCAUGCUAGGAUAUACGAAACAUUAGGGUUCUUUGUAUGAACAUGAGGAUCACCCAUGUAGAAGGAGCGUGCU [Mod7 of JL-ex2-2.15 mat747 mod] (puzzle: Exclusion 2) |  |  | 92.4 | 
UCGGCGCGAGGAUAUGCGGCUGGUGCUUCGGGCUCUGGCGUACAUGAGGAUCACCCAUGUAGAAGGCGCGCCGC [Apr-15 SS2-42] (puzzle: Exclusion 2) |  |  | 10.5 | 
GCAGACGUAGUGAGGAUAUGCUCUACCUCGGUAGAGCAGAAGGCACAUGAGGAUCACCCAUGUGAUUCUUCUGC [Omei Ex4B B10] (Eterna round: R97, puzzle: Brourd's mod of Exclusion 4) | 324 | 47.2 |  | 
UGAUUGAUUAACAGAUUAUACAUGAGGAUCACCCAUGUAGGUCCUACGUGCCCUUUAAGCAGCUCGUCUUAUUCCCA [Sensor-V1 #69] (Eterna round: R97, puzzle: Sensor, turn-off variant 1) | 43.7 | 45.6 |  | 
AGUUAGAUAGGAUAUGCCCGAGAUAACAUGAGGAUCACCCAUGUGACCGAAUCUAUUCUAGCAGAAGGGUUUAUGA [Mod of ViennaUCT 19 - Jieux - Exclusion 5] (Eterna round: R97, puzzle: Exclusion 5) | 40.2 | 95 |  | 
ACAUGUUAUCCAUGAUAUUACAUGAGGAUCACCCAUGUUAUGGCGAUUUUGAUGUGUAAGUUUGUUGCUCGUCUUAU [JR_STOV1_Sub060] (Eterna round: R97, puzzle: Sensor, turn-off variant 1) | 40.9 | 48.1 |  | 
CUAGCUUCGGCUAGUACAAGCUUUUUGCUCGUCUUAUUAACAUGAGGAUCACCCAUGUCAAAGAGACCUCAUGUAUU [Sensor v3 - turn-off variant 2 - 2] (puzzle: Sensor v3, turn-off variant 2) |  |  | 15.5 | apparent KD of MS2 coat protein [2]: 347 nM; apparent KD of MS2 coat protein [3]: 572 nM
AGAGUAAUGCGAGGAUAUACAUGAGGAUCACCCAUGUGGUGGUGUGAGGCAAAGCCUCACACCAUGUAGAAGGCGCAUUACUCA [Mat - Exclusion NG 2 - Mod of JL - D21] (Eterna round: R96, puzzle: Exclusion NG 2) | 155 | 39.3 |  | apparent KD of MS2 coat protein [4]: 35.2 nM
CCUACUCCCGUUAGGAUAUGUGGAGGCGUACCUCCGUAGAAGGAACAUGAGGAUCACCCAUGUCGCUGUCAUGC [Eternabot (L2) Solution 90] (Eterna round: R97, puzzle: Brourd's mod of Exclusion 4) | 18.4 | 19.9 |  | 
UAUAUAUAGUAAGGAUAUGUAUAUAUUUUAUAAACAGAAGGUACUGACAUGAGGAUCACCCAUGUUUUAGUGUGGGCAUGUAGA [JMF's solution 7] (Eterna round: R96, puzzle: Exclusion NG 1) |  |  |  | apparent KD of MS2 coat protein [4]: 57.5 nM
AAAAGAUAAGGAUAUUGAAGGUUCGACAUGAGGAUCACCCAUGUUAUGUUGGAAAAGGGACAAGAAGGUAUGAAAU [salish99_ex5_r4_202] (Eterna round: R97, puzzle: Exclusion 5) | 28.6 | 29.1 |  | 
GUGCGCGGCUAGGAUAUUGUGGGUUUUUGUCUGCGAGAAGGAGCCACAUGAGGAUCACCCAUGUGGUGUUGCUC [salish99_ex6_r4_013] (Eterna round: R97, puzzle: Exclusion 6) | 220 | 63.6 |  | 
GAUUGACAUGAGGAUCACCCAUGUGAGGAUAUCGGCUGGACCGUGUUGGCGUGCCUCUCGAGAAGGCGCAUAGG [Exclusion 1 V54] (puzzle: Exclusion 1) |  |  | 39.9 | apparent KD of MS2 coat protein [2]: 64.8 nM; apparent KD of MS2 coat protein [3]: 51.3 nM

Sequence | apparent KD of MS2 coat protein (input ligand: FMN 200 uM) [nM] | apparent KD of MS2 coat protein (input ligand: none) [nM] | apparent KD of MS2 coat protein [1] [nM] | further results
AAAGGCUCAGGAUAUGCCCAGGAAGACAUGAGGAUCACCCAUGUACUACGGGUGUCAUACGCAGAAGGGAGAUAGA [EX5 C.28] (Eterna round: R97, puzzle: Exclusion 5) | 25.1 | 28.7 |  | 
GGUCCACAUGAGGAUCACCCAUGUUAGGAUAUCUCGUCCGAGCAGUUAUGGGCCGGGCAGAGAAGGAAUGUGAA [Orbibibi] (puzzle: Exclusion 1) |  |  | 25.7 | 
AUUGUUUAUGUAGGAUAUGCCUGGCGUGCCUUCGCAGAAGGACAUGAGGAUCACCCAUGUAUUGCGGUCUGCGUUCAGAUCGCU [salish99_ExNG1_r4_025] (Eterna round: R96, puzzle: Exclusion NG 1) | 75 | 55.4 |  | apparent KD of MS2 coat protein [4]: 30.6 nM
AAAUAACAAGCGAGAUCCUACAUGAGGAUCACCCAUGUGCUCGUCUUAACAAGUACUAUCACGAAAGUGAUAGUACA [Mat - Sensor v3 - turn-off var 1 - Eli Mod - D69] (puzzle: Sensor v3, turn-off variant 1) |  |  | 59.4 | apparent KD of MS2 coat protein [2]: 17.5 nM; apparent KD of MS2 coat protein [3]: 12.1 nM
CUGCUCCGUGUAGGAUAUGCGCGCACCCACCGCGCAGAAGGACAUGAGGAUCACCCAUGUAUGUUAUUAUCACGUGAGGCGCGG [Design 36] (Eterna round: R96, puzzle: Exclusion NG 1) | 31.9 | 33.1 |  | apparent KD of MS2 coat protein [4]: 17.7 nM
UAAUUUUUAGUAAGGAUAUCGGUCCCAAGGGACAACGAGAAGGUACAUGAGGAUCACCCAUGUGAAAUAAGAAU [Mod of Zala 4 - Jieux - Brourd's Mod of Exclusion 4] (Eterna round: R97, puzzle: Brourd's mod of Exclusion 4) | 27.9 | 17.3 |  | 
GGCACACAUGAGGAUCACCCAUGUGAGGAUAUGUGGCGAUCGUCGAAAGACGAUAGCCAUAGAAGGCACAUGCC [Eli x1 4.08] (Eterna round: R97, puzzle: Exclusion 1) | 32.1 | 18.1 |  | 
CGACGACAUGAGGAUCACCCAUGUCAGGAUAUGGAAAACCAGAAUAUAUUUUAACUUUCCAGAAGGGACAGGUC [Eternabot (Original) Solution 1] (Eterna round: R97, puzzle: Exclusion 1) | 19.6 | 18.1 |  | 
GAUUAUGCGAGCUUUAGGGACAUGAGGAUCACCCAUGUUCGUCUUAUUAGUCUAGGUGCACUGACAUACCUAAAUCU [JMF 90] (puzzle: Sensor v3, turn-off variant 1) |  |  | 26.1 | apparent KD of MS2 coat protein [2]: 19.1 nM; apparent KD of MS2 coat protein [3]: 18.3 nM
UAAUGCAAGCAAAGAUCUUACAUGAGGAUCACCCAUGUGCUCGUCUUAUAAAGUACUAUCACGAAAGUGAUAGUACA [Mat - Sensor v3 - turn-off var 1 - Eli Mod - D91] (puzzle: Sensor v3, turn-off variant 1) |  |  | 109 | apparent KD of MS2 coat protein [2]: 27.6 nM; apparent KD of MS2 coat protein [3]: 26.3 nM
GACUGCUGAGGAUAUACAUGAGGAUCACCCAUGUGCUUCAGUAUCGAAAGAUGCAUGGGUAGAAGGUGGUAGUC [LRO-Excl3-09] (puzzle: Exclusion 3) |  |  | 80.1 | 
CAACCACAUGAGGAUCACCCAUGUGAGGAUAUGAUACUAUGUACUUCGGUACAUAGUAUCAGAAGGCACAGGUG [Ex1-3: 60] (puzzle: Exclusion 1) |  |  | 83.2 | 
AUUUAGUGAGGAUAUGUGGCUUCGAUCGUGAGAUCGAGGCUACAGAAGGCACAUGAGGAUCACCCAUGUUCCUG [salish99_ex4_r4_113] (Eterna round: R97, puzzle: Exclusion 4) | 75.7 | 17.5 |  | 
CUAACAUGCUGGUGAUCAUACAUGAGGAUCACCCAUGUAACAAGCUUUUUGCUCGUCUUAUAAGAUUACUAGUAUGU [Stov1/10-A4] (Eterna round: R97, puzzle: Sensor, turn-off variant 1) | 21.4 | 21.9 |  | 
UAUUAGCAAGUAAGGUCCCACAUGAGGAUCACCCAUGUGCUCGUCUUAUAAGGUACUGUGACGAAAGUCACGGUACC [Sensor 3, v1 - 95] (Eterna round: R96, puzzle: Sensor v3, turn-off variant 1) | 22 | 23.6 |  | apparent KD of MS2 coat protein [4]: 326 nM
CAGUACUGAGGAUAUACAUGAGGAUCACCCAUGUGUUCCUGCUAGGAAACUAGCAAAGGUAGAAGGCAGUACUG [Salish 065 m3] (Eterna round: R97, puzzle: Exclusion 3) | 464 | 27.9 |  | 
UAAGUGCUGCGAGGAUAUACAUGAGGAUCACCCAUGUGGAUGUCUGAGGCUUUGCCUCAGACGAUGUAGAAGGCGCAGUACAAU [Mat - Exclusion NG 2 - Mod of JL - D51] (Eterna round: R96, puzzle: Exclusion NG 2) | 77.3 | 20.6 |  | apparent KD of MS2 coat protein [4]: 11.1 nM
